According to the RNAGym collection of RNA variant scans (doi:10.7554/elife.80360):

B1: Hairpin Ribozyme (parent)
chain: GUCCUCUUUCACGUGCGCGUGAAAGAGAGAAGUGAACCAGAGAAACACACGUUGUGGUAUAUUACCUGGUA

Variants of: B1
Experiment: self-cleavage, relative activity (ratio to wild type); higher = more cleavage; co-transcriptional

Variant | self-cleavage
A11G U60C | 1
A11G U60A | 0.732
C12U U14A | 0.73
C12U U14G | 0.602
C12A A41U | 1.13
C12A A41C | 1.05
C12U G57U | 0.262
C12U G57A | 0.215
C12G C37G | 0.294
C12G U52C | 0.899
C12A A71U | 0.701
C12A A71C | 1.26
A11C U20G | 1.04
A11C U20A | 0.774
C12G U70G | 0.615
C12A A49C | 0.0858
A11G U62G | 0.332
A11G U62C | 0.146
C12G G34A | 1.03
C12G G34U | 1.16
C12A A26U | 0.522
C12A A26G | 0.766
C12G A41C | 1.21
A11U U62G | 0.0971

Variant | self-cleavage
C12A G25C | 0.346
A11C G40U | 0.181
A11C G40C | 0.182
C12G G32C | 0.0993
A11C G42C | 0.441
C12G U63G | 0.204
C12G U63A | 0.194
C12A A44C | 0.0806
C12A A44G | 0.114
C12U C16G | 0.78
C12U C16A | 0.735
A11G G34A | 1.18
A11G G19A | 0.88
A11G C65U | 0.227
A11G C65A | 0.759
C12G A36G | 0.843
C12G A36C | 0.533
C12G A61U | 0.217
C12G A61G | 0.154
A11G G57C | 0.169
C12A G27C | 0.0872
A11G A26C | 0.624
A11C G29U | 0.113
A11C G29C | 0.137

Variant | self-cleavage
C12U C46A | 0.177
C12U C46G | 0.142
C12U U67A | 0.348
C12U U67G | 0.286
A11U G57A | 0.15
A11U G57U | 0.337
A11U G25A | 0.402
A11U G25U | 0.568
A11C C66G | 0.0776
A11U C50A | 0.153
A11U A26C | 0.305
A11U A43C | 0.139
A11U A43G | 0.135
C12G A24U | 0.669
C12U C37U | 0.504
A11C G51A | 1.08
C12U U63C | 0.0427
A11G U53A | 0.945
A11G U53G | 0.755
C12U G27A | 0.328
A11U G15U | 0.895
C12U C66A | 0.179
A11C C48U | 0.266
C12G A64G | 0.466

Variant | self-cleavage
A11G A44C | 0.203
A11G A44G | 0.0822
A11G G21A | 0.764
A11G G21U | 0.72
C12U A45C | 0.201
A11G G51C | 0.784
A11G A23G | 0.83
C12A C65G | 0.282
A11G A28C | 0.446
A11G U58G | 0.802
A11G A47C | 0.481
C12A G17A | 0.746
C12A G17C | 0.978
C12A G17U | 0.707
C12U G51C | 0.809
C12U G51U | 0.872
C12U G51A | 1.01
A11U U14A | 0.796
A11G G54U | 0.56
A11G G54A | 0.487
C12A G40C | 0.15
C12A G40U | 0.186
C12A U33C | 0.166
A11G G25C | 0.587

Variant | self-cleavage
A11G G25U | 0.569
C12A U14A | 0.611
C12A U14G | 0.566
C12A U14C | 0.71
A11U G29A | 0.137
A11U A47C | 0.232
A11U A47G | 0.247
C12U G40C | 0.194
C12U G40A | 0.358
C12A A31G | 0.468
C12A A31C | 0.117
A11G G32U | 0.104
A11G G32A | 0.0907
A11G G69A | 0.405
C12U G17C | 0.578
C12U G17A | 0.91
C12U A71U | 0.656
C12U A71C | 1.31
A11U C48U | 0.154
A11U C48A | 0.215
A11G U63C | 0.204
A11G U63G | 0.296
A11U A36U | 0.533
A11U A36C | 0.619

Variant | self-cleavage
C12G C50U | 0.291
C12U G54C | 0.47
A11U C38A | 0.2
C12U U58G | 0.584
C12U U58A | 0.597
C12A A22U | 0.737
A11G U70G | 0.846
C12G C48A | 0.128
C12G C65A | 0.829
C12G G42C | 0.351
C12G A71C | 1.3
C12G A71U | 0.655
A11U U63G | 0.175
C12U C38U | 0.523
A11U G40U | 0.154
A11C U60C | 1.27
A11C G25U | 0.548
A11C U58G | 0.696
A11C U52C | 1.06
C12G A31C | 0.174
A11G A39C | 0.45
A11U A35U | 0.717
C12G A45G | 0.0996
A11G U20A | 0.637

Variant | self-cleavage
C12A A45G | 0.177
C12A A45U | 0.132
C12U C18A | 1.01
C12G U20A | 0.795
A11U G19U | 0.815
C12U G29U | 0.0791
C12U G29C | 0.133
C12U A31G | 0.549
A11G G68U | 0.143
A11G G68C | 0.221
C12A A59G | 0.226
C12U A59C | 0.149
A11G A30U | 0.118
A11U A28C | 0.53
C12A U67G | 0.215
C12A U67C | 0.216
C12A U67A | 0.18
C12G G57U | 0.322
C12G C46U | 0.191
C12A U62A | 0.168
A11G C18U | 0.939
A11G C18A | 0.795
A11U A71C | 1.17
